From PMC2275666 (The EMBO Journal, 2008)
Values joined by “and” are separate entries in the source; they are usually repeats but may differ in a detail not shown here. Equal values may be shown once. Read-outs that look alike come from different tables or passages of the source.

T1: hTFIIH p62 PH-D (pleckstrin homology domain of the p62 subunit of human TFIIH) (human, UniProt P32780 1-108)
T1 sequence: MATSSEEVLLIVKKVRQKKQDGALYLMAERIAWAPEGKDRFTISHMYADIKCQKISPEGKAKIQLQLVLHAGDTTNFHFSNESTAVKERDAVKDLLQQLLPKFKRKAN

B1: 6H–hTFIIEα wild type (full-length hTFIIEα) (natural protein)
chain: MADPDVLTEVPAALKRLAKYVIRGFYGIEHALALDILIRNSCVKEEDMLELLKFDRKQLRSVLNNLKGDKFIKCRMRVETAADGKTTRHNYYFINYRTLVNVVKYKLDHMRRRIETDERDSTNRASFKCPVCSSTFTDLEANQLFDPMTGTFRCTFCHTEVEEDESAMPKKDARTLLARFNEQIEPIYALLRETEDVNLAYEILEPEPTEIPALKQSKDHAATTAGAASLAGGHHREAWATKGPSYEDLYTQNVVINMDDQEDLHRASLEGKSAKERPIWLRESTVQGAYGSEDMKEGGIDMDAFQEREEGHAGPDDNEEVMRALLIHEKKTSSAMAGSVGAAAPVTAANGSDSESETSESDDDSPPRPAAVAVHKREEDEEEDDEFEEVADDPIVMVAGRPFSYSEVSQRPELVAQMTPEEKEAYIAMGQRMFEDLFE
B2: GST–p62(1−108) (GST-tagged p62 PH-D) (domain or fragment)
chain: T1 sequence
B3: GST–p62(1−238) (domain or fragment)
chain: not shown
B4: GST–p62(1−333) (domain or fragment)
chain: not shown
B5: hTFIIEα AC-D (C-terminal acidic domain of the human TFIIEα subunit, residues 378–439) (domain or fragment)
chain: EEDEEEDDEFEEVADDPIVMVAGRPFSYSEVSQRPELVAQMTPEEKEAYIAMGQRMFEDLFE
B6: hTFIIEα(351−439) (longer construct with STDE and acidic regions, NMR titration) (domain or fragment)
chain: GSDSESETSESDDDSPPRPAAVAVHKREEDEEEDDEFEEVADDPIVMVAGRPFSYSEVSQRPELVAQMTPEEKEAYIAMGQRMFEDLFE
B7: FLAG-tagged hTFIIH p62 PH-D, wild type (domain or fragment)
chain: T1 sequence

How the values were obtained:
[1] = target: full-length GST–p62(1−548) (human, UniProt P32780 1-548); test: pull-down
[2] = target: B1; test: pull-down
[3] = target: T1, hTFIIH p62 PH-D (pleckstrin homology …); test: NMR titration
[4] = target: B1; test: pull-down; remark: listed apart in the source

Row | Binder | binding result [2] | Kd [3] | also measured
1 | B1 |  |  | binding result [1]: binds
2 | B2 | binds |  | 
3 | B3 | binds |  | 
4 | B4 | binds |  | 
5 | B5 |  | 0.376 µM and 0.237 µM | 
6 | B6 |  | 0.4 ± 0.043 µM | 
7 | EEEDDEFEEVADDP [hTFIIEα AC-D(381−394) peptide (N-terminal tail only)] |  | 2.12 ± 0.192 µM | 
8 | B7 |  |  | binding result [4]: binds
